Reference: PMC5040251, “The Structure of Treponema pallidum Tp0751 (Pallilysin) Reveals a Non-canonical Lipocalin Fold That Mediates Adhesion to Extracellular Matrix Components and Interactions with Host Cells” (PLoS Pathogens, 2016)
Where a chain is given by its changes, count along the chain named. Names and notes keep the numbering of the source. Ends that are not written are not given here.

Experiments:
fibronectin [1] = assay: Dose-dependent binding assay to immobilized fibronectin; conditions: plate binding to immobilized human plasma fibronectin; peptides serially diluted 1:2 from 40 to 0.625; absorbance 600 nm, three wells, representative of two independent experiments; non-linear regression, GraphPad Prism; read-out: Apparent Kd (Fn)
Method: (§1) Fig 3 Tp0751 lipocalin derived peptides directly bind host proteins. (A) Thirteen overlapping Tp0751 synthetic 24-mer peptides were evaluated for binding to immobilized fibrinogen, fibronectin, collagen type I, and collagen type IV. Average absorbance readings (600 nm) from three wells are presented with bars indicating standard error and the results are representative of two independent experiments. […] Average absorbance readings (600 nm) from three wells are presented with bars indicating standard error and the results are representative of two independent experiments. […] The strand colored in cyan reflects the overlap of p10 and p11. Color coded sequences of peptides p4, p6, p10, p10scr1, and p10scr2 are shown. Arginine residues in the p10 peptides are indicated by underlining.
(§2) Plasminogen-depleted human fibrinogen (Calbiochem) was purchased from VWR International. Laminin isolated from Engelbreth-Holm-Swarm murine sarcoma basement membrane and fibronectin isolated from human plasma were purchased from Sigma-Aldrich Canada Ltd. (Oakville, ON). Human collagen types I and IV (Rockland Immunochemicals, Inc.) were purchased from VWR International.
(§3) To test for binding of synthetic Tp0751 peptides p1-p13, p1scr, p6scr, p10scr1, and p10scr2 to the host proteins fibrinogen, fibronectin, laminin, collagen type I, and collagen type IV, initial binding assays were performed as described previously. For dose-dependent binding assays, recombinant proteins were serially diluted 1:2 from either 10 μM to 0.156 μm (Tp0751_78A used for crystallization and Tp0751_78 WT) or 40 μm to 0.625 μm (peptides p4, p6, p10, p11, p10scr1, and p10scr2). Average absorbance readings (600 nm) from three wells are presented with bars indicating standard error and the results are representative of two independent experiments. Plates were read at 600 nm with a BioTek enzyme-linked immunosorbent assay plate reader (Fisher Scientific, Ottawa, ON). All statistical analyses were performed using the Student’s two-tailed t-test. Non-linear regression curves were fitted and apparent dissociation constants (K d) were calculated using GraphPad Prism data analysis software (San Diego, CA).

fibronectin [2] = assay: Initial (single point) binding screen of Tp0751 peptide library to immobilized fibronectin; parameters: species or system human; conditions: absorbance 600 nm, three wells, two independent experiments, Student's two-tailed t-test against non-binding peptides
Method: as §1, §2, §3

collagen type I = assay: Initial (single point) binding screen of Tp0751 peptide library to immobilized collagen type I; conditions: immobilized human collagen type I; absorbance 600 nm, three wells, two independent experiments; Student's two-tailed t-test against non-binding peptides
Method: as §1, §2, §3

collagen type IV = assay: Initial (single point) binding screen of Tp0751 peptide library to immobilized collagen type IV; conditions: immobilized human collagen type IV; absorbance 600 nm, three wells, two independent experiments; Student's two-tailed t-test against non-binding peptides
Method: as §1, §2, §3

fibrinogen = molecular target: T1, fibrinogen (Homo sapiens, UniProt P02671+P02675+P02679); assay: Initial (single point) binding screen of Tp0751 peptide library to immobilized fibrinogen; conditions: absorbance 600 nm, three wells, two independent experiments, Student's two-tailed t-test against non-binding peptides
T1 construct: purchased Calbiochem, purchased from VWR International
T1 sequence (P02671 20-629 limits assumed): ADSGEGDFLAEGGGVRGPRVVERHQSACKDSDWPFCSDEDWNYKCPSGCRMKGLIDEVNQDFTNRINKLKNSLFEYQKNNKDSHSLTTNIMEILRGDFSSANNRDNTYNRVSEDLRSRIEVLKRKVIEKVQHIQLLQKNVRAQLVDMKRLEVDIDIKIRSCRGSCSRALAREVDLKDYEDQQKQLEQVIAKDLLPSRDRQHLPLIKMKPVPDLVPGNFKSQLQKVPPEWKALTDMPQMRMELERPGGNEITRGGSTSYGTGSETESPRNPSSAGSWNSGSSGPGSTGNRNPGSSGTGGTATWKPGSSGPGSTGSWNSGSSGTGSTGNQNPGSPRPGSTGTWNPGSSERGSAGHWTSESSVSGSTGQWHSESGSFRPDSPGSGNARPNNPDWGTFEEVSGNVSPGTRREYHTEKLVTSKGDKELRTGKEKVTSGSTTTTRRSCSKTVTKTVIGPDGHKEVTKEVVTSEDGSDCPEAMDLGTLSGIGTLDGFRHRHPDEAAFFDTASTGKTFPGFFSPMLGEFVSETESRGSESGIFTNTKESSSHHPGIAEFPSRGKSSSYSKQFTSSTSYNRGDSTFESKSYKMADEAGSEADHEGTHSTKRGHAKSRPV
T1 sequence (P02675 31-491): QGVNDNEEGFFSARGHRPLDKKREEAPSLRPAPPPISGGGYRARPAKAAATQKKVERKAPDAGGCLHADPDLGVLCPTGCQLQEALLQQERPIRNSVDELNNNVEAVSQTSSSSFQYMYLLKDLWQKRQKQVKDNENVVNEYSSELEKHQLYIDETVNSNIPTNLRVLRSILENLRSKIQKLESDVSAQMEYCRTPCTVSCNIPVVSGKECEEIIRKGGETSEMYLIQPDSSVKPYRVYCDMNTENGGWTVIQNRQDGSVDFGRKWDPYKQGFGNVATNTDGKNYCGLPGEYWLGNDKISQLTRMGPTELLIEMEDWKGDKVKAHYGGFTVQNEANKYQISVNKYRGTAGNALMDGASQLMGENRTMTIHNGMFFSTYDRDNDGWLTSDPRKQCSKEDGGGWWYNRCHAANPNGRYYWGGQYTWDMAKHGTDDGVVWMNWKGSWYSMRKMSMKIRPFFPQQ
T1 sequence (P02679 27-433 limits assumed): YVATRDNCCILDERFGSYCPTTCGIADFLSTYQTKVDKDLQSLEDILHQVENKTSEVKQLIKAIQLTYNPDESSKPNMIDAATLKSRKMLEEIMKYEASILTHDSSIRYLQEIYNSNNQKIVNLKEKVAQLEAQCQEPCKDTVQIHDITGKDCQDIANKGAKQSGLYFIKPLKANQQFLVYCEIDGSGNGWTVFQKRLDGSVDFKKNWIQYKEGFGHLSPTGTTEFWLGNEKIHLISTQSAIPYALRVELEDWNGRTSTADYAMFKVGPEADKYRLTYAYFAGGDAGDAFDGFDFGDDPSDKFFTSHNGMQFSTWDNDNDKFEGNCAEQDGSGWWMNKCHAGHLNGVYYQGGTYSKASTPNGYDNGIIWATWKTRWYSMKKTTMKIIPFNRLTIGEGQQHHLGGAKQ
Method: as §1, §2, §3

[3] = molecular target: fibronectin isolated from human plasma (human); assay: ELISA; dose-dependent plate binding assay on immobilised fibrinogen or fibronectin; His6-tagged synthetic peptides serially diluted 1:2 from 40 μM to 0.625 μM; absorbance at 600 nm; apparent Kd by non-linear regression (GraphPad Prism)
[4] = molecular target: T2, plasminogen-depleted human fibrinogen (human, UniProt P02671-2 20-644; P02675 31-491; P02679-2 27-437); assay: as above; conditions: both partners purified
T2 construct: fibrinogen alpha chain, human; fibrinogen beta chain, human; fibrinogen gamma chain, human; also called Fg; source: bought: Calbiochem (through VWR International)
T2 sequence (looked up) 1: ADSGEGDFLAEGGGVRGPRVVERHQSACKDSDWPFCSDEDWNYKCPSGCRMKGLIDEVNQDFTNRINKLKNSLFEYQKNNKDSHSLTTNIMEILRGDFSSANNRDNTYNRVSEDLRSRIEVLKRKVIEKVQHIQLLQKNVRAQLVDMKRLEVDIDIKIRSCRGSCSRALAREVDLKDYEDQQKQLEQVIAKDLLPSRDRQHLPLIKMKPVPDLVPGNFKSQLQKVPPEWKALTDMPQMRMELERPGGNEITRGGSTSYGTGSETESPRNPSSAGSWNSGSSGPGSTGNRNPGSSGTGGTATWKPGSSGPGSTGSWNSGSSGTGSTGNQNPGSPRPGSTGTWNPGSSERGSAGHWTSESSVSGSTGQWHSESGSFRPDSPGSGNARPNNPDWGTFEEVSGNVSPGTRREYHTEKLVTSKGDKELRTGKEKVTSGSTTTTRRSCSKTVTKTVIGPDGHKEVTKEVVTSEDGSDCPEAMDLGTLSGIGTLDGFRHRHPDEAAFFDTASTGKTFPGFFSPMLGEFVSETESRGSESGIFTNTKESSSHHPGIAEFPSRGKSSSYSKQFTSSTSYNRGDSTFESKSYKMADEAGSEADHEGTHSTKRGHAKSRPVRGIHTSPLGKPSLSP
T2 sequence (looked up) 2: T1 sequence (P02675 31-491)
T2 sequence (looked up) 3: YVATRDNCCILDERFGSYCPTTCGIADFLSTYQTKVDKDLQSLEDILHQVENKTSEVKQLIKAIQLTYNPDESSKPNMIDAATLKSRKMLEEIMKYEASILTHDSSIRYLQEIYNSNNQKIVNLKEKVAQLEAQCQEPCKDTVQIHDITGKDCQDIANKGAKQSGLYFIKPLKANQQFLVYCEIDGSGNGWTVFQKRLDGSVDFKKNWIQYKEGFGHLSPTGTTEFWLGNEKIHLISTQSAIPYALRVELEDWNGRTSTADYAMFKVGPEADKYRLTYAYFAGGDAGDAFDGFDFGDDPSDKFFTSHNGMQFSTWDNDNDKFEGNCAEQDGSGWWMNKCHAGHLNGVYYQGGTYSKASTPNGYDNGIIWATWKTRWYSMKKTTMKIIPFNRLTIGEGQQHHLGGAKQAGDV

[5] = molecular target: T2, plasminogen-depleted human fibrinogen; assay: ELISA; dose-dependent plate binding assay on immobilised fibrinogen; recombinant Tp0751 proteins serially diluted 1:2 from 10 μM to 0.156 μM; absorbance at 600 nm; apparent Kd by non-linear regression (GraphPad Prism); conditions: both partners purified

HHHHHHTSRVKLTISFERSLVNRTRTARFI [p10scr1]
Kd (fibronectin [1]): 1.3 ± 0.1 µM
Binding to fibronectin in initial binding screen (fibronectin [2]): enhanced binding relative to p10
Binding to collagen I in initial binding screen (collagen type I): enhanced binding relative to p10
Binding to collagen IV in initial binding screen (collagen type IV): enhanced binding relative to p10
Binding to fibrinogen in initial binding screen (fibrinogen): enhanced binding relative to p10

Tp0751 synthetic peptide p4 (from UniProt O83732 88-111)
Kd [3]: 2.4 µM

Tp0751 synthetic peptide p6 (from UniProt O83732 116-139)
Kd [3]: 4.5 µM

Tp0751 synthetic peptide p11 (from UniProt O83732 186-209)
Kd [3]: 5.8 µM

B1: Tp0751 synthetic peptide p6 (peptide)
peptide: QGALQHLLAGLWIQTEISPNSGDI
notes: Tp0751 (pallilysin), Treponema pallidum subsp. pallidum; its central four residues LWIQ (126-129) are printed; also called peptide 6; source: synthetic peptide; not shown: His6, N-terminal, kept
Kd [4]: 10.5 ± 2 µM

B2: Tp0751 synthetic peptide p11 (peptide)
peptide: SIRRRLEVTFESHEVIHVRAVEDV
notes: Tp0751 (pallilysin), Treponema pallidum subsp. pallidum; shares its first 10 residues (with the arginine triplet) with p10; source: synthetic peptide; not shown: His6, N-terminal, kept
Kd [4]: 9.2 ± 1 µM

VAREFNKSRTILFRTSVTRLSTRI [second scrambled version of Tp0751 peptide 10 (p10scr2)]
Kd [3]: 7.9 µM

B3: Tp0751_78 WT (domain or fragment)
chain: SHGNAPPAPVGGAAQTHTQPPVQTAMRIALWNRATHGEQGALQHLLAGLWIQTEISPNSGDIHPLLFFDREHAEITFSRASVQEIFLVDSAHTHRKTVSFLTRNTAISSIRRRLEVTFESHEVIHVRAVEDVARLKIGSTSMWDGQYTRYHAGPASAPSP
notes: Tp0751 (pallilysin), Treponema pallidum subsp. pallidum, Ser78 to Pro237 (C-terminus), wild type at Glu199; The methods tell vector (modified pET28a, TEV-cleavable N-terminal His6), host strain and purification only for the E199A constructs; also called wild-type Tp0751_78 WT; source: E. coli, purified
Kd [5]: 6.1 ± 1.7 µM

B4: Tp0751_78 E199A (Tp0751_78A) (domain or fragment, Treponema pallidum subsp. pallidum, UniProt O83732 78-237, looked up)
chain: B3 chain with E122A
notes: Tp0751 (pallilysin), Treponema pallidum subsp. pallidum, Ser78 to Pro237 (C-terminus), with E199A; The construct used for crystallization; also called pallilysin Ser78 to Pro237 E199A; not shown: His6, N-terminal, cleaved
Kd [5]: 2 ± 0.4 µM

B5: Tp0751 synthetic peptide p10 (peptide)
peptide: RKTVSFLTRNTAISSIRRRLEVTF
notes: Tp0751 (pallilysin), Treponema pallidum subsp. pallidum; Its composition equals that of the printed scrambled peptide p10scr2; also called peptide 10; source: synthetic peptide; not shown: His6, N-terminal, kept
Kd [4]: 1.6 ± 0.1 µM

B6: Tp0751 synthetic peptide p4 (peptide)
peptide: GGAAQTHTQPPVQTAMRIALWNRA
notes: Tp0751 (pallilysin), Treponema pallidum subsp. pallidum; its central four residues PVQT (98-101) are printed; also called peptide 4; source: synthetic peptide; not shown: His6, N-terminal, kept
Kd [4]: 6.9 ± 0.4 µM
